# According to ChEMBL document CHEMBL1671717, “In vitro potentiation of carbapenems with ME1071, a novel metallo-beta-lactamase inhibitor, against metallo-beta-lactamase- producing Pseudomonas aeruginosa clinical isolates” (Antimicrob Agents Chemother, 2010):
# B1: Beta-lactamase (Pseudomonas aeruginosa), Q79MP6 (protein)
# chain: MSKLSVFFIFLFCSIATAAESLPDLKIEKLDEGVYVHTSFEEVNGWGVVPKHGLVVLVNAEAYLIDTPFTAKDTEKLVTWFVERGYKIKGSISSHFHSDSTGGIEWLNSRSIPTYASELTNELLKKDGKVQATNSFSGVNYWLVKNKIEVFYPGPGHTPDNVVVWLPERKILFGGCFIKPYGLGNLGDANIEAWPKSAKLLKSKYGKAKLVVPSHSEVGDASLLKLTLEQAVKGLNESKKPSKPSN
# Tests used:
# [1] = substrate: C[C@@H](O)[C@H]1C(=O)N2C(C(=O)O)=C(SCCNC=N)C[C@H]12; assay: (§1) Activity of Pseudomonas aeruginosa beta-lactamase IMP-1 by UV spectrophotometric analysis
# [2] = substrate: C[C@@H](O)[C@H]1C(=O)N2C(C(=O)[O-])=C(SC3Cn4cnc[n+]4C3)[C@H](C)[C@H]12; assay: as §1
# [3] = substrate: C[C@@H](O)[C@H]1C(=O)N2C(C(=O)O)=C(SCCNC=N)C[C@H]12; assay: (§2) Ratio of Kcat to Km for Pseudomonas aeruginosa beta-lactamase IMP-1 by UV spectrophotometric analysis
# [4] = substrate: C[C@@H](O)[C@H]1C(=O)N2C(C(=O)O)=C(S[C@@H]3CN[C@H](C(=O)N(C)C)C3)[C@H](C)[C@H]12; assay: as §2
# [5] = substrate: C[C@@H](O)[C@H]1C(=O)N2C(C(=O)[O-])=C(SC3Cn4cnc[n+]4C3)[C@H](C)[C@H]12; assay: as §2
protein,measurement,setting,value
B1,Km,[1],35.1 µM
same,kcat,[1],63.5 s⁻¹
same,Km,[2],167 µM
same,kcat,[2],44.7 s⁻¹
same,kcat/Km,[3],1.8e+06 M⁻¹ s⁻¹
same,kcat/Km,[4],200000 M⁻¹ s⁻¹
same,kcat/Km,[5],300000 M⁻¹ s⁻¹
